Experimental data: PMC4131482, “The significance of the F variant of alpha-1-antitrypsin and unique case report of a PiFF homozygote” (BMC Pulmonary Medicine, 2014)
One block for each molecule: values may come before it.

Tests used:
[1] = target: proteinase 3 (UniProt P24158); assay: time course of enzyme inhibition (residual activity, second order association rate constant); methylamine-treated serum A1AT and PR3, equimolar, 1 nM each, 23°C, plate wells of 150 uL; residual PR3 activity at 1-5 min with the FRET substrate Abz-VAD-norV-ADRQ-EDDnp
[2] = target: proteinase 3 (UniProt P24158); assay: time course of enzyme inhibition (residual activity, second order association rate constant); purified M or Z variant A1AT and PR3, equimolar, 1 nM each, 23°C, plate wells of 150 uL; residual PR3 activity at 1-5 min with the FRET substrate Abz-VAD-norV-ADRQ-EDDnp
[3] = target: T1, M variant alpha-1-antitrypsin (human (endogenous in serum), UniProt P01009 25-418); assay: as above; conditions: both partners purified
T1 construct: alpha-1-antitrypsin (A1AT), normal M variant, human serum or bought pure protein; the assays tell them apart; also called M variant A1AT; pure M variant A1AT; source: endogenous, serum of healthy PiMM controls, treated with methylamine; also bought: Athens Research and Technology, pure

[4] = target: T2, F variant alpha-1-antitrypsin (human (endogenous in serum), UniProt P01009 25-418, arginine at residue 223 by cysteine); assay: time course of enzyme inhibition (residual activity, second order association rate constant); methylamine-treated serum A1AT and PR3, equimolar, 1 nM each, 23°C, plate wells of 150 uL; residual PR3 activity at 1-5 min with the FRET substrate Abz-VAD-norV-ADRQ-EDDnp; conditions: one partner purified
T2 construct: alpha-1-antitrypsin (A1AT), F variant, human serum; arginine at residue 223 replaced by cysteine; also called F variant A1AT; F A1AT; source: endogenous, serum of a PiFF homozygote, treated with methylamine

[5] = target: T1, M variant alpha-1-antitrypsin; assay: as above; conditions: one partner purified

T1 sequence (P01009 25-418, change not shown): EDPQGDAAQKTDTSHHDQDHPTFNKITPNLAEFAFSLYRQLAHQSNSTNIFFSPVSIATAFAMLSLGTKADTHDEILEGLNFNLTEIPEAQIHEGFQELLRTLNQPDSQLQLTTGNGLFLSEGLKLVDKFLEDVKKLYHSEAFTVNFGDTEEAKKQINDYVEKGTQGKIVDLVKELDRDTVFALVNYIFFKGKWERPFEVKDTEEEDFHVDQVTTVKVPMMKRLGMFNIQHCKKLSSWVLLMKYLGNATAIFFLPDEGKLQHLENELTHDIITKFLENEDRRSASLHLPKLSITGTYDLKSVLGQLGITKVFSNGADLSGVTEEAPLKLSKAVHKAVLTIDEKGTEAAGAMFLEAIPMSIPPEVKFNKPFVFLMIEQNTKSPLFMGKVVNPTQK
T2 sequence (P01009 other isoform, or with tags, fused parts or gaps with the stated changes): as the sequence (P01009 25-418, change not shown) above, with R223C counted along it

kon [1]: 951000 M⁻¹ s⁻¹
Molecule: S variant alpha-1-antitrypsin (from UniProt P01009 25-418) (natural protein)

kon [1]: 1.1e+06 M⁻¹ s⁻¹ | kon [2]: 1.03e+06 M⁻¹ s⁻¹
Molecule: Z variant alpha-1-antitrypsin (from UniProt P01009 25-418) (natural protein)

kon [3]: 983000 M⁻¹ s⁻¹ | kon [4]: 1.06e+06 M⁻¹ s⁻¹ | kon [5]: 924000 M⁻¹ s⁻¹
B1: proteinase 3 (enzyme, UniProt P24158 28-248, looked up)
chain: IVGGHEAQPHSRPYMASLQMRGNPGSHFCGGTLIHPSFVLTAAHCLRDIPQRLVNVVLGAHNVRTQEPTQQHFSVAQVFLNNYDAENKLNDVLLIQLSSPANLSASVATVQLPQQDQPVPHGTQCLAMGWGRVGAHDPPAQVLQELNVTVVTFFCRPHNICTFVPRRKAGICFGDSGGPLICDGIIQGIDSFVIWGCATRLFPDFFTRVALYVDWIRSTLR
notes: proteinase 3 (PR3), bought pure enzyme, active site titrated; also called PR3; pure PR3; source: bought: Merck, pure
